Source: patent publication US20160031977A1 (BETH ISRAEL DEACONESS MEDICAL CENTER, published 2016)
Square brackets hold non-standard residues; d marks the D form. Ends that are not written are not given here. pT = C[C@@H](OP(=O)(O)O)[C@H](N)C(=O)O

T1: pT231-tau peptide locked in trans (pT231-Ala)
T1 construct: also called trans pT231-tau peptide
T1 peptide: KVAVVR[pT]APKSPS


Target: T1, pT231-tau peptide locked in trans …
Assay: ELISA, hybridoma culture supernatant on peptide
Procedure: To develop cis and trans pT231-tau mouse mAbs, 74% cis pT231-Pip tau peptide as described previously in Nakamura et al., Cell 149: 232-244, 2012 was used to immunize mice. The procedure produced 480 hybridoma clones that were then characterized. […] The nucleic acid and protein sequences including the CDRs of the mAb heavy chain and light chain are shown below. […] The DNA sequences of the heavy and light chains of the mAbs were determined using 5′ RACE RT-PCR techniques, as described in Bradbury et al., Neurobiol Aging 16:465-475, 1995. […] Predicted protein sequences are highly conserved in Framework regions, with clear differences in complementary determining region (CDR) 1-3 (FIGS. 8 and 9).

binding result	Binder
no binding	Cis mAb-#74 (antibody, V domains shown, Mouse monoclonal antibody from a hybridoma, screened as culture supernatant; also called cis hybridoma clone #74; cis pT231-tau mouse mAb) VH: DVQLQESGPGLVKPSQSLSLTCSVTGYSITSGYYWNWIRQFPGNKLEWMGYISYDGSNNYNPSLKNRISITRDTSKNQFFLKLNSVTTEDTATYYCAGLRRDAYWGQGTLVTVSA VL: DIQMTQTTSSLSASLGDRVTISCRASQDISNYLNWYQQKPDGTVKLLIYYTSRLHSGVPSRFSGSGSGTDYSLTISNLEQEDIATYFCQQGNTLPWTFGGGTKLEIKR
no binding	Cis mAb-#113 (antibody, V domains shown, Mouse monoclonal antibody from a hybridoma, screened as culture supernatant; also called cis pT231-tau mouse mAb) VH: QVQLQQPGAELVKPGASVKMSCKASGYTFTSYWIHWVKQRPGQGLEWIGVIDPSDSYTRYNQKFKGKATLTVDTSSSTAYMQLSSLTSEDSAVYYCTTWEVDYWGQGTTLTVSS VL: DVVMTQTPLSLPVSLGDQASISCRSSQSLVHSDGNTYLHWYLQKPGQSPKLLIYKVSNRFSGVPDRFSGSGSGTDFTLKISRLEAEDLGVYFCSQSTHVPWTFGGGTKLEIKR
